{"source": "patent US20250340881A1", "about": "“PHARMACEUTICAL COMPOSITION FOR TREATING CANCER COMPRISING FOXM1 MUTANT OR FOXM1 SHRNA” (Industry-University Cooperation Foundation Hanyang …, priority 2022, published 2025)", "system": "A549 lung cancer cells expressing the FoxM1 phosphorylated point mutant protein", "assay": "Migration assay of A549 cells over-expressing FoxM1 phosphorylated point mutant treated with peptides", "assay_type": "cell-based", "settings": "doxycycline 3 μg/ml, 48 hours, no peptide", "description": "Moreover, to evaluate the effects and efficacy of the three peptides comprising the FoxM1 non-phosphorylation point mutation on the motility of cancer cells, the cell motility was measured by a migration assay (FIG. 8C). Specifically, 5×10^4 cells of A549 lung cancer cells expressing the FoxM1 phosphorylated point mutant protein were seeded into an 8.0 μm, 24-well insert. Culture medium containing 10% serum (FBS) was added to a 24-well plate, and then the insert was placed into the plate. 0.5 ml of RPMI 1640 (10% FBS) containing 3 μg/ml of doxycycline was dispensed into the plate, and each of the three kinds of 5 μM of FoxM1 non-phosphorylated point mutant peptides was simultaneously treated. […] After 5 minutes, the plate was washed with 1×PBS five times, and the stained intensity was measured using the Odyssey infrared imaging system. […]\nSpecifically, 5×10^4 cells of A549 lung cancer cells expressing the FoxM1 phosphorylated point mutant protein were seeded in an 8.0 μm, 24-well insert, and the inserts were placed in a 24-well plate after medium with 10% fetal bovine serum (FBS) was dispensed on the 24-well plate. […] After 5 minutes, the plate was washed with 1×PBS five times, and the stained intensity was measured using the Odyssey infrared imaging system. […]", "data": [{"molecule": "S25E: FoxM1 phosphorylated point mutant of the S25 residue, expressed by lentivirus in A549 cells (protein, listed as Homo sapiens) MKTSPRRPLILKRRRLPLPVQNAPEETSEEEPKRSPAQQESNQAEASKEVAESNSCKFPAGIKIINHPTMPNTQVVAIPNNANIHSIITALTAKGKESGSSGPNKFILISCGGAPTQPPGLRPQTQTSYDAKRTEVTLETLGPKPAARDVNLPRPPGALCEQKRETCDGEAAGCTINNSLSNIQWLRKMSSDGLGSRSIKQEMEEKENCHLEQRQVKVEEPSRPSASWQNSVSERPPYSYMAMIQFAINSTERKRMTLKDIYTWIEDHFPYFKHIAKPGWKNSIRHNLSLHDMFVRETSANGKVSFWTIHPSANRYLTLDQVFKQQQKRPNPELRRNMTIKTELPLGARRKMKPLLPRVSSYLVPIQFPVNQSLVLQPSVKVPLPLAASLMSSELARHSKRVRIAPKVLLAEEGIAPLSSAGPGKEEKLLFGEGFSPLLPVQTIKEEEIQPGEEMPHLARPIKVESPPLEEWPSPAPSFKEESSHSWEDSSQSPTPRPKKSYSGLRSPTRCVSEMLVIQHRERRERSRSRRKQHLLPPCVDEPELLFSEGPSTSRWAAELPFPADSSDPASQLSYSQEVGGPFKTPIKETLPISSTPSKSVLPRTPESWRLTPPAKVGGLDFSPVQTSQGASDPLPDPLGLMDLSTTPLQSAPPLESPQRLLSSEPLDLISVPFGNSSPSDIDVPKPGSPEPQVSGLAANRSLTEGLVLDTMNDSLSKILLDISFPGLDEDPLGPDNINWSQFIPELQ", "values": [{"measurement": "stained intensity (migration) of over-expressed group compared to the control group", "value": 5, "unit": "folds"}]}]}
